Measurements from patent US20240382586A1 (TAKIS S R L, published 2024).
Where a chain is given by its changes, count along the chain named.

B1: humanised 9-8F2-B11 (VH3VL3) (antibody, V domains shown)
VH: QVQLVQSGAEVKKPGASVKVSCKASGFNIKETYVHWVRQAPGQGLEWMGRIDPAIGDSEYAQKFQGRVTMTRDTSISTAYMELSRLRSDDTAVYYCARTWGPFFDFWGQGTLVTVSS
VL: DIVMTQTPLSLSVTPGQPASISCKSSQSLLHSHGNTFLHWYLQKPGQSPQVLIYKVSSRFSGVPDRFSGSGSGTDFTLKISRVEAEDVGVYYCSQSTHVPYTFGQGTKLEIK
notes: also called 9-8F2-B11 humanised
B2: 9-2H7-D7 chimera (antibody, V domains shown)
VH: EVQLQQSGPELVKPGASVTISCKTSGYTFTEYTMYWVKQSHGKSLEWIGGINPYIGDTSYNQNFKGKATLTVDKSSSTAYMELRSLTSEDSAVYYCARDGYPDYSAMDFWGQGTSVTVSS
VL: DIVMSQSPSSLAVSVGEKVTMNCKSSQNLLYSSNQKNYLAWYQQKPGQSPKLLIYWASTRESGVPDRFTGSGSGTDFTLTISSVKAEDLAVYSCQQYYTYPWTFGGGTKLEIK
B3: 9-7A4-C2 (mouse) (antibody, V domains shown)
VH: EVQLQQSGPELVKPGASVKISCKTSGYTFTEYTMYWVKQSHGKSLEWIGGINPNNGDSSYIQKFKGKATLTVDESSSTAYMELRSLTSEDSAVYYCARDGYPNSYAMDYWGQGTSVTVSS
VL: B2 VL with E17D, N22S, N28S, S33T, S82G, K85R, A86P, S93Y, T99S
B4: 9-8F2-B11 (mouse) (antibody, V domains shown)
VH: EVQLQQSGAELVKPGASVKLSCTASGFNIKETYVHWVKQRPEQGLEWIGRIDPAIGDSEYDPKFQGKATVTADTSSNTAYLQLSRLTSEDTAVYYCARTWGPFFDFWGQGTTLTVSS
VL: DVVMTQTPLSLPVSLGDQASISCRSSQSLVHSHGNTFLHWYLQKPGQSPKVLIYKVSSRFSGVPDRFSGSGAGTDFTLKISRVEAEDLGVYFCSQSTHVPYTFGGGTKLEIK
B5: 9-2H7-D7 (mouse) (antibody, V domains shown)
VH: B2 VH
VL: B2 VL

target: SARS-CoV-2 spike, African variant B.1.351 (on pseudovirus) (SARS-CoV-2); assay: cell-based or functional assay

Row | Binder | IC50 (ng/ml), pseudovirus neutralisation, African B1.1.351 [ng/mL]
1 | B1 | 12000
2 | B2 | 21
3 | B3 | 20

target: SARS-CoV-2 spike, variant N501Y (B.1.1.7, British) (on virus or pseudovirus) (SARS-CoV-2, UniProt P0DTC2 14-1273); assay: cell-based or functional assay

Row | Binder | IC50 (ng/ml), pseudovirus neutralisation, British B1.1.7 [ng/mL]
4 | B1 | 11
5 | B4 | 7.7
6 | B5 | 40
7 | B2 | 11
8 | B3 | 18
